In this assay the target is Human TCTP (translationally controlled tumor protein) (human) (UniProt P13693). Description: SPR, Biacore 8K, human TCTP immobilised on CM5 chip, antibody as analyte, 1:1 model. For orientation: Surface plasmon resonance follows binding to a sensor surface in real time, without labels.

Our source for the Kd values is patent US20250388694A1.

One may read the Kd as the free concentration of one partner at which half of the binding sites on the other are occupied at equilibrium, for simple one-to-one binding.

Chain of Human TCTP (translationally controlled tumor protein) (human) (P13693 whole entry): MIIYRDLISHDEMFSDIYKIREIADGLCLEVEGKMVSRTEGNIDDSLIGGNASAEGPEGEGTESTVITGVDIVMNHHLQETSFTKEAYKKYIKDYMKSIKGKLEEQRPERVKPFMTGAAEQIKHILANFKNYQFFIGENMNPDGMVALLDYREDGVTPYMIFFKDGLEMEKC

B1: 55F3 (antibody, from another filing, V domains shown)
VH: DVQLQESGPGLVKPSQSLSLTCTATGYSIASDYAWNWIRQFPGNKLEWMGYINYSGSTGYNPSLKSRISITRDTSKNQFFLQLNSVTTEDTATYYCARFEAGYWGQGTTLTVSS
VL: DIKMTQSPSSMSASLGERVTITCKASQDINRYLSWFQQKPGKSPKTLIYRANRLVDGVPSRFSGSGSGQDYSLTISSLEYGDMGIYYCLQYNEFPLTFGAGTKLELKR
In the case of B1, the Kd was found to be 263 nM.
